{
  "source": "patent US20090099029A1",
  "about": "“Methods and substrates for conducting assays” (Invitrogen Corporation, priority 2005, published 2009)",
  "molecules": {"B1": {"name": "NEK2 (protein)", "chain": "MPSRAEDYEVLYTIGTGSYGRCQKIRRKSDGKILVWKELDYGSMTEAEKQMLVSEVNLLRELKHPNIVRYYDRIIDRTNTTLYIVMEYCEGGDLASVITKGTKERQYLDEEFVLRVMTQLTLALKECHRRSDGGHTVLHRDLKPANVFLDGKQNVKLGDFGLARILNHDTSFAKTFVGTPYYMSPEQMNRMSYNEKSDIWSLGCLLYELCALMPPFTAFSQKELAGKIREGKFRRIPYRYSDELNEIITRMLNLKDYHRPSVEEILENPLIADLVADEQRRNLERRGRQLGEPEKSQDSSPVLSELKLKEIQLQERERALKAREERLEQKEQELCVRERLAEDKLARAENLLKNYSLLKERKFLSLASNPELLNLPSSVIKKKVHFSGESKENIMRSENSESQLTSKSKCKDLKKRLHAAQLRAQALSDIEKNYQLKSRQILGMR", "modifications": "left off: small tags and cut ends"}, "B2": {"name": "EPHA5 (protein)", "chain": "SGSCCECGCGRASSLCAVAHPSLIWRCGYSKAKQDPEEEKMHFHNGHIKLPGVRTYIDPHTYEDPNQAVHEFAKEIEASCITIERVIGAGEFGEVCSGRLKLPGKRELPVAIKTLKVGYTEKQRRDFLGEASIMGQFDHPNIIHLEGVVTKSKPVMIVTEYMENGSLDTFLKKNDGQFTVIQLVGMLRGISAGMKYLSDMGYVHRDLAARNILINSNLVCKVSDFGLSRVLEDDPEAAYTTRGGKIPIRWTAPEAIAFRKFTSASDVWSYGIVMWEVVSYGERPYWEMTNQDVIKAVEEGYRLPSPMDCPAALYQLMLDCWQKERNSRPKFDEIVNMLDKLIRNPSSLKTLVNASCRVSNLLAEHSPLGSGAYRSVGEWLEAIKMGRYTEIFMENGYSSMDAVAQVTLEDLRRLGVTLVGHQKKIMNSLQEMKVQLVNGMVPL", "modifications": "left off: a dimerising Fc or GST"}, "B3": {"name": "MAPKAPK5(PRAK) (protein)", "chain": "MSEESDMDKAIKETSILEEYSINWTQKLGAGISGPVRVCVKKSTQERFALKILLDRPKARNEVRLHMMCATHPNIVQIIEVFANSVQFPHESSPRARLLIVMEMMEGGELFHRISQHRHFTEKQASQVTKQIALALRHCHLLNIAHRDLKPENLLFKDNSLDAPVKLCDFGFAKIDQGDLMTPQFTPYYVAPQVLEAQRRHQKEKSGIIPTSPTPYTYNKSCDLWSLGVIIYVMLCGYPPFYSKHHSRTIPKDMRRKIMTGSFEFPEEEWSQISEMAKDVVRKLLKVKPEERLTIEGVLDHPWLNSTEALDNVLPSAQLMMDKAVVAGIQQAHAEQLANMRIQDLKVSLKPLHSVNNPILRKRKLLGTKPKDSVYIHDHENGAEDSNVALEKLRDVIAQCILPQAGENEDEKLNEVMQEAWKYNRECKLLRDTLQSFSWNGRGFTDKVDRLKLAEIVKQVIEEQTTSHESQ", "modifications": "left off: small tags and cut ends"}, "B4": {"name": "MINK1 (protein)", "chain": "MGDPAPARSLDDIDLSALRDPAGIFELVEVVGNGTYGQVYKGRHVKTGQLAAIKVMDVTEDEEEEIKQEINMLKKYSHHRNIATYYGAFIKKSPPGNDDQLWLVMEFCGAGSVTDLVKNTKGNALKEDCIAYICREILRGLAHLHAHKVIHRDIKGQNVLLTENAEVKLVDFGVSAQLDRTVGRRNTFIGTPYWMAPEVIACDENPDATYDYRSDIWSLGITAIEMAEGAPPLCDMHPMRALFLIPRNPPPRLKSKKWSKKFIDFIDTCLIKTYLSRPPTEQLLKFPFIRDQPTERQVRIQLKDHIDRSRKKRGEKEETE", "modifications": "left off: a dimerising Fc or GST"}, "B5": {"name": "MAPK14(p38alpha) (protein)", "chain": "MSQERPTFYRQELNKTIWEVPERYQNLSPVGSGAYGSVCAAFDTKTGLRVAVKKLSRPFQSIIHAKRTYRELRLLKHMKHENVIGLLDVFTPARSLEEFNDVYLVTHLMGADLNNIVKCQKLTDDHVQFLIYQILRGLKYIHSADIIHRDLKPSNLAVNEDCELKILDFGLARHTDDEMTGYVATRWYRAPEIMLNWMHYNQTVDIWSVGCIMAELLTGRTLFPGTDHINQLQQIMRLTGTPPAYLINRMPSHEARNYIQSLTQMPKMNFANVFIGANPLAVDLLEKMLVLDSDKRITAAQALAHAYFAQYHDPDDEPVADPYDQSFESRDLLIDEWKSLTYDEVISFVPPPLDQEEMES", "modifications": "left off: a dimerising Fc or GST"}, "B6": {"name": "MAPK13(p38delta) (protein)", "chain": "MSLIRKKGFYKQDVNKTAWELPKTYVSPTHVGSGAYGSVCSAIDKRSGEKVAIKKLSRPFQSEIFAKRAYRELLLLKHMQHENVIGLLDVFTPASSLRNFYDFYLVMPFMQTDLQKIMGMEFSEEKIQYLVYQMLKGLKYIHSAGVVHRDLKPGNLAVNEDCELKILDFGLARHADAEMTGYVVTRWYRAPEVILSWMHYNQTVDIWSVGCIMAEMLTGKTLFKGKDYLDQLTQILKVTGVPGTEFVQKLNDKAAKSYIQSLPQTPRKDFTQLFPRASPQAADLLEKMLELDVDKRLTAAQALTHPFFEPFRDPEEETEAQQPFDDSLEHEKLTVDEWKQHIYKEIVNFSPIARKDSRRRSGMKL", "modifications": "left off: small tags and cut ends"}, "B7": {"name": "NEK3 (protein)", "chain": "MDDYMVLRMIGEGSFGRALLVQHESSNQMFAMKEIRLPKSFSNTQNSRKEAVLLAKMKHPNIVAFKESFEAEGHLYIVMEYCDGGDLMQKIKQQKGKLFPEDMILNWFTQMCLGVNHIHKKRVLHRDIKSKNIFLTQNGKVKLGDFGSARLLSNPMAFACTYVGTPYYVPPEIWENLPYNNKSDIWSLGCILYELCTLKHPFQANSWKNLILKVCQGCISPLPSHYSYELQFLVKQMFKRNPSHRPSATTLLSRGIVARLVQKCLPPEIIMEYGEEVLEEIKNSKHNTPRKKTNPSRIRIALGNEASTVQEEEQDRKGSHTDLESINENLVESALRRVNREEKGNKSVHLRKASSPNLHRRQWEKNVPNTALTALENASILTSSLTAEDDRGGSVIKYSKNTTRKQWLKETPDTLLNILKNADLSLAFQTYTIYRPGSEGFLKGPLSEETEASDSVDGGHDSVILDPERLEPGLDEEDTDFEEEDDNPDWVSELKKRAGWQGLCDR", "modifications": "left off: a dimerising Fc or GST"}, "B8": {"name": "MAPKAPK3 (protein)", "chain": "MDGETAEEQGGPVPPPVAPGGPGLGGAPGGRREPKKYAVTDDYQLSKQVLGLGVNGKVLECFHRRTGQKCALKLLYDSPKARQEVDHHWQASGGPHIVCILDVYENMHHGKRCLLIIMECMEGGELFSRIQERGDQAFTEREAAEIMRDIGTAIQFLHSHNIAHRDVKPENLLYTSKEKDAVLKLTDFGFAKETTQNALQTPCYTPYYVAPEVLGPEKYDKSCDMWSLGVIMYILLCGFPPFYSNTGQAISPGMKRRIRLGQYGFPNPEWSEVSEDAKQLIRLLLKTDPTERLTITQFMNHPWINQSMVVPQTPLHTARVLQEDKDHWDEVKEEMTSALATMRVDYDQVKIKDLKTSNNRLLNKRRKKQAGSSSASQGCNNQ", "modifications": "left off: small tags and cut ends"}, "B9": {"name": "PAK1 (protein)", "chain": "MSNNGLDIQDKPPAPPMRNTSTMIGAGSKDAGTLNHGSKPLPPNPEEKKKKDRFYRSILPGDKTNKKKEKERPEISLPSDFEHTIHVGFDAVTGEFTGMPEQWARLLQTSNITKSEQKKNPQAVLDVLEFYNSKKTSNSQKYMSFTDKSAEDYNSSNALNVKAVSETPAVPPVSEDEDDDDDDATPPPVIAPRPEHTKSVYTRSVIEPLPVTPTRDVATSPISPTENNTTPPDALTRNTEKQKKKPKMSDEEILEKLRSIVSVGDPKKKYTRFEKIGQGASGTVYTAMDVATGQEVAIKQMNLQQQPKKELIINEILVMRENKNPNIVNYLDSYLVGDELWVVMEYLAGGSLTDVVTETCMDEGQIAAVCRECLQALEFLHSNQVIHRDIKSDNILLGMDGSVKLTDFGFCAQITPEQSKRSTMVGTPYWMAPEVVTRKAYGPKVDIWSLGIMAIEMIEGEPPYLNENPLRALYLIATNGTPELQNPEKLSAIFRDFLNRCLEMDVEKRGSAKELLQHQFLKIAKPLSSLTPLIAAAKEATKNNH", "modifications": "left off: a dimerising Fc or GST"}, "B10": {"name": "MYLK2 (protein)", "chain": "MATENGAVELGIQNPSTDKAPKGPTGERPLAAGKDPGPPDPKKAPDPPTLKKDAKAPASEKGDGTLAQPSTSSQGPKGEGDRGGGPAEGSAGPPAALPQQTATPETSVKKPKAEQGASGSQDPGKPRVGKKAAEGQAAARRGSPAFLHSPSCPAIISSSEKLLAKKPPSEASELTFEGVPMTHSPTDPRPAKAEEGKNILAESQKEVGEKTPGQAGQAKMQGDTSRGIEFQAVPSEKSEVGQALCLTAREEDCFQILDDCPPPPAPFPHRMVELRTGNVSSEFSMNSKEALGGGKFGAVCTCMEKATGLKLAAKVIKKQTPKDKEMVLLEIEVMNQLNHRNLIQLYAAIETPHEIVLFMEYIEGGELFERIVDEDYHLTEVDTMVFVRQICDGILFMHKMRVLHLDLKPENILCVNTTGHLVKIIDFGLARRYNPNEKLKVNFGTPEFLSPEVVNYDQISDKTDMWSMGVITYMLLSGLSPFLGDDDTETLNNVLSGNWYFDEETFEAVSDEAKDFVSNLIVKDQRARMNAAQCLAHPWLNNLAEKAKRCNRRLKSQILLKKYLMKRRWKKNFIAVSAANRFKKISSSGALMALGV", "modifications": "left off: a dimerising Fc or GST"}, "B11": {"name": "MAPK8(JNK1) (protein)", "chain": "MSRSKRDNNFYSVEIGDSTFTVLKRYQNLKPIGSGAQGIVCAAYDAILERNVAIKKLSRPFQNQTHAKRAYRELVLMKCVNHKNIIGLLNVFTPQKSLEEFQDVYIVMELMDANLCQVIQMELDHERMSYLLYQMLCGIKHLHSAGIIHRDLKPSNIVVKSDCTLKILDFGLARTAGTSFMMTPYVVTRYYRAPEVILGMGYKENVDLWSVGCIMGEMVCHKILFPGRDYIDQWNKVIEQLGTPCPEFMKKLQPTVRTYVENRPKYAGYSFEKLFPDVLFPADSEHNKLKASQARDLLSKMLVIDASKRISVDEALQHPYINVWYDPSEAEAPPPKIPDKQLDEREHTIEEWKELIYKEVMDLEERTKNGVIRGQPSPLAQVQQ", "modifications": "left off: small tags and cut ends"}},
  "data": [
    {"test_system": "kinases of Table 6 on Myelin Basic Protein (MBP)", "assay": "Kinase assay using MBP substrate, ProQ Diamond stain (Table 6)", "type": "biochemical", "details": "kinase printed on MBP-coated slide; 20 uM ATP, 30° C.; ProQ Diamond Microarray Stain; graded Strong/Weak/Negative", "procedure,_shortened": "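Reactions ran at 30° C. with 20 uM ATP, 4 mM MgCl2 and 5% DMSO in HEPES pH 7.5, inhibitor added or omitted. Kinases had been arrayed onto slide-bound dephosphorylated bovine MBP; phospho-signal read after ProQ Diamond staining.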", "values": [
      {"molecule": "B1", "MBP Kinase Activity": "Strong"},
      {"molecule": "B2", "MBP Kinase Activity": "Negative"},
      {"molecule": "B3", "MBP Kinase Activity": "Strong"},
      {"molecule": "B4", "MBP Kinase Activity": "Weak"},
      {"molecule": "B5", "MBP Kinase Activity": "Strong"},
      {"molecule": "B6", "MBP Kinase Activity": "Weak"},
      {"molecule": "B7", "MBP Kinase Activity": "Negative"},
      {"molecule": "B8", "MBP Kinase Activity": "Strong"},
      {"molecule": "B9", "MBP Kinase Activity": "Negative"},
      {"molecule": "B10", "MBP Kinase Activity": "Negative"},
      {"molecule": "B11", "MBP Kinase Activity": "Negative"}
    ]}
  ]
}
